In article PMC6328183:

Molecular target: FuBc protein (recombinant protein of the fusion loop and Bc loop of domain II of dengue envelope protein with their neighbouring residues) (DENV-2 (of the template structure PDB 1OAN))
Test: SPR; Biacore T200; FuBc immobilised by amine coupling; scFv injected at 10 uM down to 50 nM, 20 ul/min over 2 min; regeneration with 2 M NaCl; control flow cell subtracted; KD as kd/ka

3IXY scFv antibody (VH and VL of the anti-fusion loop dengue E53 Fab, PDB 3IXY, joined by a (G4S)3 linker), sequence (VH): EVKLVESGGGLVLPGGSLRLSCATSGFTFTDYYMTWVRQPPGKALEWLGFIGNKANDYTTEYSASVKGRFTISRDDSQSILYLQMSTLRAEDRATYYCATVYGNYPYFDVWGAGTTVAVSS
3IXY scFv antibody (VH and VL of the anti-fusion loop dengue E53 Fab, PDB 3IXY, joined by a (G4S)3 linker), sequence (VL): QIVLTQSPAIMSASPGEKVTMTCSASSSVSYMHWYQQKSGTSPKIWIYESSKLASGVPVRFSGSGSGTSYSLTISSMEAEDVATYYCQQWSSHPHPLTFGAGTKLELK

## 3IXY scFv antibody (VH and VL of the anti-fusion loop dengue E53 Fab, PDB 3IXY, joined by a (G4S)3 linker)
  Kd: 2300 nM
